Measured values published in PMC12796366.

Columns and labels:
EGFP (Aequorea victoria) = assay: AUC; sedimentation velocity, 0.5 mg/mL of the isolated fluorescent protein, 25 mM phosphate buffer pH 6.2 or 7.4, 150 mM NaCl, 1% glycerol, 1 mM MgCl2, 0.5 mM beta-mercaptoethanol (legend also: 50 mM KCl), 42,000 rpm, 20 °C, interference detection, c(s) fit with Sedfit
EYFP (Aequorea victoria) = assay: as above

Substance	stoichiometry N (EGFP (Aequorea victoria))	stoichiometry N (EYFP (Aequorea victoria))
EGFP	2	–
EYFP	–	2
